The data set deals with Escherichia coli TOP10. Description: shrunken log2 fold change of peptide-encoding DNA abundance (4.5 h post-induction vs induction); higher = less antimicrobial activity (less host growth inhibition). The conditions noted are these: time post-induction: 4.5 h; library: site-saturation at positions 5, 18, 19, 20.
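Note: peptides expressed intracellularly from a pBAD plasmid library in pooled LB shake-flask culture, induced with 0.3% L-arabinose, DNA abundance read by NGS, three biological replicates, DESeq2 with apeglm shrinkage.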

On to RRIRCRPPRLPRPRPRPPGRPRP, for which the “shrunken log2 fold change” value is 1.16.
For the sequence RRIRNRPPRLPRPRPRPLETPRP, the “shrunken log2 fold change” value was -0.0418.
Consider RRIRSRPPRLPRPRPRPDTPPRP, for which the “shrunken log2 fold change” value was -0.0107.
As to RRIRMRPPRLPRPRPRPKMNPRP, the “shrunken log2 fold change” value was determined as 0.501.
Regarding RRIRTRPPRLPRPRPRPRFCPRP, the “shrunken log2 fold change” value stood at 0.443.
RRIRERPPRLPRPRPRPQRLPRP: the “shrunken log2 fold change” value turned out to be 0.202.
On to RRIRMRPPRLPRPRPRPHKWPRP, for which the “shrunken log2 fold change” value turned out to be 0.216.
For RRIRERPPRLPRPRPRPAANPRP, the “shrunken log2 fold change” value stood at 0.0774.
In the case of RRIRIRPPRLPRPRPRPITKPRP, the “shrunken log2 fold change” value is -0.123.
The figure for RRIRVRPPRLPRPRPRPFKIPRP is -0.342; for RRIRLRPPRLPRPRPRPFWSPRP it is -0.162.
As for RRIRERPPRLPRPRPRPVNDPRP, the “shrunken log2 fold change” value was -0.0156.
RRIRTRPPRLPRPRPRPFLYPRP: the “shrunken log2 fold change” value was -0.786.
Consider RRIRCRPPRLPRPRPRPQKIPRP, for which the “shrunken log2 fold change” value is -0.252.
For the sequence RRIRERPPRLPRPRPRPKWSPRP, the “shrunken log2 fold change” value was -0.146.
Take RRIRYRPPRLPRPRPRPHCSPRP: the “shrunken log2 fold change” value is -0.239.
Then RRIRGRPPRLPRPRPRPGDKPRP, with 0.425; and RRIRKRPPRLPRPRPRPSPYPRP, with -0.0694; and RRIRCRPPRLPRPRPRPLWWPRP, with 0.204.
On to RRIRMRPPRLPRPRPRPCMGPRP, for which the “shrunken log2 fold change” value is -0.28.
Take RRIRQRPPRLPRPRPRPQYRPRP: the “shrunken log2 fold change” value came out at 0.0114.
On to RRIRDRPPRLPRPRPRPYNQPRP, for which the “shrunken log2 fold change” value is -0.135.
The figure for RRIRCRPPRLPRPRPRPISKPRP is -0.37; for RRIRRRPPRLPRPRPRPSNMPRP it is -0.311; for RRIRNRPPRLPRPRPRPNIAPRP it is -0.352.
In the case of RRIRLRPPRLPRPRPRPSFEPRP, the “shrunken log2 fold change” value worked out at 0.0552.
The figure for RRIRTRPPRLPRPRPRPSDNPRP is -0.697; for RRIRSRPPRLPRPRPRPRATPRP it is 0.301; for RRIRNRPPRLPRPRPRPVYNPRP it is -0.381.
Take RRIRTRPPRLPRPRPRPEMKPRP: the “shrunken log2 fold change” value was 0.258.
For the sequence RRIRQRPPRLPRPRPRPLWVPRP, the “shrunken log2 fold change” value is 0.221.
Then RRIRNRPPRLPRPRPRPNQKPRP, with -0.174; and RRIRARPPRLPRPRPRPFATPRP, with 0.66; and RRIRWRPPRLPRPRPRPMMRPRP, with 1.08.
For RRIRCRPPRLPRPRPRPQLKPRP, the “shrunken log2 fold change” value is -0.194.
Take RRIRFRPPRLPRPRPRPSTWPRP: the “shrunken log2 fold change” value is -0.000934.
RRIRMRPPRLPRPRPRPCRVPRP: the “shrunken log2 fold change” value was found to be 0.00805.
In the case of RRIRSRPPRLPRPRPRPDSLPRP, the “shrunken log2 fold change” value stood at 0.00187.
Regarding RRIRHRPPRLPRPRPRPWNKPRP, the “shrunken log2 fold change” value is -0.111.
Take RRIRQRPPRLPRPRPRPPCIPRP: the “shrunken log2 fold change” value is -0.053.
RRIRYRPPRLPRPRPRPQYQPRP: the “shrunken log2 fold change” value was -0.103.
Turning to RRIRTRPPRLPRPRPRPVSYPRP, the “shrunken log2 fold change” value is -0.242.
With RRIRDRPPRLPRPRPRPFLVPRP, the “shrunken log2 fold change” value is -0.199.
Take RRIRQRPPRLPRPRPRPSDAPRP: the “shrunken log2 fold change” value stood at 0.147.
The figure for RRIRSRPPRLPRPRPRPRRHPRP is 0.323.
As for RRIRSRPPRLPRPRPRPDLTPRP, the “shrunken log2 fold change” value was 0.0442.
As to RRIRQRPPRLPRPRPRPPHEPRP, the “shrunken log2 fold change” value was found to be 0.559.
The figure for RRIRSRPPRLPRPRPRPNKPPRP is -0.23; for RRIRFRPPRLPRPRPRPMLYPRP it is -0.567; for RRIRSRPPRLPRPRPRPKEHPRP it is 0.0336.

The values are drawn from the supplement of paper PMC9112550, “Optimization of the antimicrobial peptide Bac7 by deep mutational scanning” (BMC Biology, 2022).
